# Laboratory results taken from patent US20150329644.
# B1: Recombinant 6x his tagged full-length LSD2 (protein)
# chain: HHHHHHMATPRGRTKKKASFDHSPDSLPLRSSGRQAKKKATETTDEDEDGGSEKKYRKCEKAGCTATCPVCFASASERCAKNGYTSRWYHLSCGEHFCNECFDHYYRSHKDGYDKYTTWKKIWTSNGKTEPSPKAFMADQQLPYWVQCTKPECRKWRQLTKEIQLTPQIAKTYRCGMKPNTAIKPETSDHCSLPEDLRVLEVSNHWWYSMLILPPLLKDSVAAPLLSAYYPDCVGMSPSCTSTNRAAATGNASPGKLEHSKAALSVHVPGMNRYFQPFYQPNECGKALCVRPDVMELDELYEFPEYSRDPTMYLALRNLILALWYTNCKEALTPQKCIPHIIVRGLVRIRCVQEVERILYFMTRKGLINTGVLSVGADQYLLPKDYHNKSVIIIGAGPAGLAAARQLHNFGIKVTVLEAKDRIGGRVWDDKSFKGVTVGRGAQIVNGCINNPVALMCEQLGISMHKFGERCDLIQEGGRITDPTIDKRMDFHFNALLDVVSEWRKDKTQLQDVPLGEKIEEIYKAFIKESGIQFSELEGQVLQFHLSNLEYACGSNLHQVSARSWDHNEFFAQFAGDHTLLTPGYSVIIEKLAEGLDIQLKSPVQCIDYSGDEVQVTTTDGTGYSAQKVLVTVPLALLQKGAIQFNPPLSEKKMKAINSLGAGIIEKIALQFPYRFWDSKVQGADFFGHVPPSASKRGLFAVFYDMDPQKKHSVLMSVIAGEAVASVRTLDDKQVLQQCMATLRELFKEQEVPDPTKYFVTRWSTDPWIQMAYSFVKTGGSGEAYDIIAEDIQGTVFFAGEATNRHFPQTVTGAYLSGVREASKIAAF
# Tests used:
# [1] = biological target: T1, GST-NP.d1 (NPAC residues 1-150, PWWP domain)
# T1 chain: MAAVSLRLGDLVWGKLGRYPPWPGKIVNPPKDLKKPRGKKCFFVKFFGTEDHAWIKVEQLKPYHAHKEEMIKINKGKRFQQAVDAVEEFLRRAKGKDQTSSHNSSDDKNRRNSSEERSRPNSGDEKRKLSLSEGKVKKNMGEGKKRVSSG
# [2] = biological target: T2, GST-NP.d4 (NPAC residues 152-553)
# T2 chain: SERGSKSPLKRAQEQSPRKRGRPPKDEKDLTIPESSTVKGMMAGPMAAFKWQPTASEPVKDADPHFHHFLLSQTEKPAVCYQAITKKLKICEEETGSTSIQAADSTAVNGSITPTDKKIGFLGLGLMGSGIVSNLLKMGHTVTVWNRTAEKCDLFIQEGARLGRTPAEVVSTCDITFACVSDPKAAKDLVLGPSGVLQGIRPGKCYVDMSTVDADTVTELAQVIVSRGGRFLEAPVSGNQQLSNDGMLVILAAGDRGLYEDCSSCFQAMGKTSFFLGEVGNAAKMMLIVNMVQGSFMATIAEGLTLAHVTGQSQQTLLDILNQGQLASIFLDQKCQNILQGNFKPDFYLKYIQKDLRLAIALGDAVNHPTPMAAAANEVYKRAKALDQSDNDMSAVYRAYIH
# [3] = biological target: T3, GST-NP.d2 (NPAC residues 1-252)
# T3 chain: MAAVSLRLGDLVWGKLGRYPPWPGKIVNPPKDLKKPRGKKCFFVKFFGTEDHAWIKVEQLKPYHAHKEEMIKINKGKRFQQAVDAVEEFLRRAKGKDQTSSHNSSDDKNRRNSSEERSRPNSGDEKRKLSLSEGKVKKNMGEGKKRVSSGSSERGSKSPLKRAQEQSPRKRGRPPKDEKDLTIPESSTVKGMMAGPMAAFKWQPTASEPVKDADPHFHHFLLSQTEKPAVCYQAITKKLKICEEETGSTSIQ
# [4] = biological target: T4, GST-NP.d3 (NPAC residues 152-252, linker region)
# T4 chain: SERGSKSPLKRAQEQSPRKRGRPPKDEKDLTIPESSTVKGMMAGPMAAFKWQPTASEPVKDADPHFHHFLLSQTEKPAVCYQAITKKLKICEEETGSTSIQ
# [5] = biological target: T5, GST-NP.d6 (NPAC with deletion of the linker region, residues 152-252)
# T5 chain: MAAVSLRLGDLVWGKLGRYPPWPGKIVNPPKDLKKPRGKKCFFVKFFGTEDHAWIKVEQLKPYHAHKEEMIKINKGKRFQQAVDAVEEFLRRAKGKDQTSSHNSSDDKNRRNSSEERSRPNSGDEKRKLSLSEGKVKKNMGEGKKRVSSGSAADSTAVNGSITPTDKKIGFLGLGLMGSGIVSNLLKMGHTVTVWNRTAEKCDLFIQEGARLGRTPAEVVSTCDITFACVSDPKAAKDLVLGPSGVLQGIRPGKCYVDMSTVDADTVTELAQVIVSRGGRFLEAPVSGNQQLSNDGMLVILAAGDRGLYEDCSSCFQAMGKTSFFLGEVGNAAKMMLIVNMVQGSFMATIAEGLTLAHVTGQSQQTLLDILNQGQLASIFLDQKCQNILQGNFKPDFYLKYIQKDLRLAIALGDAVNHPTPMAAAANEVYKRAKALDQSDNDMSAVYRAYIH
# [6] = biological target: T6, GST-NP.d8 (NPAC residues 188-252)
# T6 chain: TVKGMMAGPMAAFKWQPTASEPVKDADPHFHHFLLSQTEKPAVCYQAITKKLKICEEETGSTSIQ
# [7] = biological target: T7, GST-NP.d5 (NPAC residues 262-553, dehydrogenase domain)
# T7 chain: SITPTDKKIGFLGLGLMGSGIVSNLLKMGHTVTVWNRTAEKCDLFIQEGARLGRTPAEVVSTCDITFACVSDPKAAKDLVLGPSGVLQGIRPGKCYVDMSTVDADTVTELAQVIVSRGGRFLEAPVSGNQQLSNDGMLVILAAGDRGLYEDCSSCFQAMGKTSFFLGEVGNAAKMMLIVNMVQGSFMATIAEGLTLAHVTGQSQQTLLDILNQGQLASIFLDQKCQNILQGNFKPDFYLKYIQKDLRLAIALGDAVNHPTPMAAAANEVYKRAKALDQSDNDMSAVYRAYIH
# [8] = biological target: T8, GST-NP.d9 (NP.d3, NPAC residues 152-252, with deletion of amino acids 214-222)
# T8 chain: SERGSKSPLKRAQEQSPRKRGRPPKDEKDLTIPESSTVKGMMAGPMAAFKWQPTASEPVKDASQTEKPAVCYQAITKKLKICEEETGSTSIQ
# [9] = biological target: T9, GST-NP.d7 (NPAC residues 152-186, containing the AT hook motif)
# T9 chain: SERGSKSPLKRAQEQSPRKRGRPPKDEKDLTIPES
protein,measurement,setting,value
B1,"LSD2 activity on nucleosome substrates (nucleosome demethylation assay, immunoblot)",[1],"Neither the PWWP domain (SEQ ID NO: 63) (NP.d1, residues 1-150) nor the dehydrogenase domain (NP.d5, residues 262-553) stimulated LSD2"
same,"LSD2 activity on nucleosome substrates (nucleosome demethylation assay, immunoblot)",[2],significantly enhance LSD2 demethylase activity
same,"LSD2 activity on nucleosome substrates (nucleosome demethylation assay, immunoblot)",[3],significantly enhance LSD2 demethylase activity
same,"LSD2 activity on nucleosome substrates (nucleosome demethylation assay, immunoblot)",[4],significantly enhance LSD2 demethylase activity
same,"LSD2 activity on nucleosome substrates (nucleosome demethylation assay, immunoblot)",[5],"deletion of the linker region (residues 152-252) abolishes cofactor activity (NP.d6, lane 10)"
same,LSD2 histone demethylase activity on nucleosomal substrates,[6],"NP.d8, but not NP.d7 or NP.d9, significantly enhances LSD2 histone demethylase activity on nucleosomal substrates"
same,"LSD2 activity on nucleosome substrates (nucleosome demethylation assay, immunoblot)",[7],"Neither the PWWP domain (SEQ ID NO: 63) (NP.d1, residues 1-150) nor the dehydrogenase domain (NP.d5, residues 262-553) stimulated LSD2"
same,LSD2 histone demethylase activity on nucleosomal substrates,[8],"NP.d8, but not NP.d7 or NP.d9, significantly enhances LSD2 histone demethylase activity on nucleosomal substrates"
same,LSD2 histone demethylase activity on nucleosomal substrates,[9],"NP.d8, but not NP.d7 or NP.d9, significantly enhances LSD2 histone demethylase activity on nucleosomal substrates"
